In paper PMC4148199, “Multiple Regulation of Rad51-Mediated Homologous Recombination by Fission Yeast Fbh1” (PLoS Genetics, 2014):

T1: Fbh1;Skp1 (Schizosaccharomyces …, UniProt Q9USU3;Q9Y709 1-878;1-161, |)
T1 sequence 1: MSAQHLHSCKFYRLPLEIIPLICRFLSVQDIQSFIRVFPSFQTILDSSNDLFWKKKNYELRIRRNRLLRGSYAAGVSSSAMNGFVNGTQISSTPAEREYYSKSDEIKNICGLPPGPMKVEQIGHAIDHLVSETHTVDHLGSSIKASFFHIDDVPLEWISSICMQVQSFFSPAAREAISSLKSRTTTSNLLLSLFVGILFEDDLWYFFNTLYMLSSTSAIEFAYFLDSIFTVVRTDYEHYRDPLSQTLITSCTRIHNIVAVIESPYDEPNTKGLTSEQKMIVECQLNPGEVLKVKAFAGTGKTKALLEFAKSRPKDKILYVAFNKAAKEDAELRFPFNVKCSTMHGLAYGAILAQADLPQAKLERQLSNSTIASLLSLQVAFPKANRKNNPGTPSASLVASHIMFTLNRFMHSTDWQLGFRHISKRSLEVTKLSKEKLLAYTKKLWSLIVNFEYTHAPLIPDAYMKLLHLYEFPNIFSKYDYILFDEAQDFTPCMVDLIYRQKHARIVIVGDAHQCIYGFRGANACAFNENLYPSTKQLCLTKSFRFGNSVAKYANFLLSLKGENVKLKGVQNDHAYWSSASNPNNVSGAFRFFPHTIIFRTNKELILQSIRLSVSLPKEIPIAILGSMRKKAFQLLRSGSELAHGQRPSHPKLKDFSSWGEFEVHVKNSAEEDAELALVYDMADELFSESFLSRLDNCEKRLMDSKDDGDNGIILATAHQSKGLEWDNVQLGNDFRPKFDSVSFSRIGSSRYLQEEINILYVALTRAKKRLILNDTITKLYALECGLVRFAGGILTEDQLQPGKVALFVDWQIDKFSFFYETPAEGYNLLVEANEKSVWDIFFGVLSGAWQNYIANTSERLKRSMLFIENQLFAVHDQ
T1 sequence 2: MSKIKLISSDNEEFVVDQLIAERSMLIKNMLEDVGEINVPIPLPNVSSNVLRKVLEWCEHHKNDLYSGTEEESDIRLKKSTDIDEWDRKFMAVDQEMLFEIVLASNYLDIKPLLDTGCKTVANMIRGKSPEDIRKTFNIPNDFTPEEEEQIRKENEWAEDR

T2: complex of 3FLAG6His-Fbh1 and 6His-Skp1 (S. pombe, UniProt Q9USU3 1-878; Q9Y709 1-161)
T2 construct: Fbh1 (F-box DNA helicase-1), Schizosaccharomyces pombe; Skp1, Schizosaccharomyces pombe; also called FLAG-His-tagged Fbh1-Skp1; Fbh1-Skp1 complex; source: insect cells, baculovirus co-infection, purified as a complex
T2 sequence (looked up) 1: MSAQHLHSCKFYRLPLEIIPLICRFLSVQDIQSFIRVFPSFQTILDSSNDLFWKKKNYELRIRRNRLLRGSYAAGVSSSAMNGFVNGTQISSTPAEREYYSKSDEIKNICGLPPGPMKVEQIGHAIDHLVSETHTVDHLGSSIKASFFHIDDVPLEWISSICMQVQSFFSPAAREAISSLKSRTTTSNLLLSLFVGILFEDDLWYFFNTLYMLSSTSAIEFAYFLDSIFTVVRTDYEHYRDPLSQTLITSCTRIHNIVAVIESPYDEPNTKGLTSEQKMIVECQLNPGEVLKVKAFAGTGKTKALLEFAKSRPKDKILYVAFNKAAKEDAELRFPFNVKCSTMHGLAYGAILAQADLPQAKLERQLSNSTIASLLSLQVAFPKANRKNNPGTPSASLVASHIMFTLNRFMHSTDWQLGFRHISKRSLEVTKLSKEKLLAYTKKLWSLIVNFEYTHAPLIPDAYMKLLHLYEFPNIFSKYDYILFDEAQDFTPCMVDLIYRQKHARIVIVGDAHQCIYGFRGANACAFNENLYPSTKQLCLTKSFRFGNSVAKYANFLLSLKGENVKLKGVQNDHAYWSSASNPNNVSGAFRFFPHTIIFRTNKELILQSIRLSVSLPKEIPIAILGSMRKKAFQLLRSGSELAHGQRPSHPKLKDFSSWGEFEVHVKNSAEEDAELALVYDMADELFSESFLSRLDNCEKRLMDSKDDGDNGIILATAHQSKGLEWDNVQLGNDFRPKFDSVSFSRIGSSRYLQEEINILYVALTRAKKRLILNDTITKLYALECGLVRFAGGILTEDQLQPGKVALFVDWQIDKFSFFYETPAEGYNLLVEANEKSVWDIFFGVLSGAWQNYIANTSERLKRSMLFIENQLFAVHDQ
T2 sequence (looked up) 2: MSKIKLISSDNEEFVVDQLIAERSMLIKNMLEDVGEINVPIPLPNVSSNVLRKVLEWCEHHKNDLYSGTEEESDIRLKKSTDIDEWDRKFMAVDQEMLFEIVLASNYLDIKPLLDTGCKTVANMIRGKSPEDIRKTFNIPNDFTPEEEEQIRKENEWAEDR


Columns and labels:
Fbh1;Skp1 = biological target: T1, Fbh1;Skp1; test: EMSA; 3 mM Mg-acetate; preferred substrate; EMSA: 25 mM Tris-acetate pH 8.0, 1 mM DTT, 3 mM Mg-acetate, 5% glycerol, 100 mM KCl, 10 nM DNA, 30 C 10 min; ssDNA beads: 30 mM Tris-HCl pH 7.5, 1 mM DTT, 100 mM NaCl, 3.5 mM MgCl2, 5% glycerol, 0.25% Tween 20, ATP regeneration system, 37 C; settings: protein: recombinant;recombinant; tags: 6His;6His; copies: 1;1; label: 32P
[1] = biological target: T2, complex of 3FLAG6His-Fbh1 and 6His-Skp1; test: co-IP; in vitro; 0.5 µg of each purified protein mixed in 10 µl 25 mM Tris-OAc pH 7.5, 100 mM KCl, 0.5% NP40, 3 mM Mg-acetate, 10 min room temperature then 20 min 4°C; M2 anti-FLAG antibody and Dynabeads Protein G; western blot with anti-Rad51, anti-Sfr1 or anti-M2; settings: both partners purified

binding result [1]	Binder	binding result (Fbh1;Skp1)
–	AGCTATGACCATGATTACGAATTGCTTGGAATCCTGACGAACTGTAG (ssDNA) [F3-d47 (47-mer ssDNA)]	binds
binds	Rad51 (natural protein, S. pombe, UniProt P36601 1-365, looked up, Rad51 recombinase, Schizosaccharomyces pombe; also called SpRad51) MADTEVEMQVSAADTNNNENGQAQSNYEYDVNVQDEEDEAAAGPMPLQMLEGNGITASDIKKIHEAGYYTVESIAYTPKRQLLLIKGISEAKADKLLGEASKLVPMGFTTATEYHIRRSELITITTGSKQLDTLLQGGVETGSITELFGEFRTGKSQICHTLAVTCQLPIDMGGGEGKCLYIDTEGTFRPVRLLAVADRYGLNGEEVLDNVAYARAYNADHQLELLQQAANMMSESRFSLLVVDSCTALYRTDFSGRGELSARQMHLARFMRTLQRLADEFGIAVVITNQVVAQVDGISFNPDPKKPIGGNILAHSSTTRLSLRKGRGEQRICKIYDSPCLPESEAIFAINSDGVGDPKEIIAPV	–
